Experimental data as given in the supplement of paper PMC12764529.
± gives the half width of the 95% confidence interval.

What was measured:
[1] = folding stability dG unfold (combined trypsin and chymotrypsin); higher = more stable
Summary of the method: (§1)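 Unfolding free energy was derived, per protease or combined, by relating Bayesian-fitted K50 values from sequencing counts to a sequence-predicted unfolded-state K50 and a shared folded-state K50. The underlying digests exposed cysteine-free mini-proteins under 80 residues, in a PA-tagged cDNA display construct, to trypsin and chymotrypsin at 11 threefold-diluted concentrations and to a no-protease condition. A filter kept only designs with AlphaFold2 dimer inter-PAE above 15.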

[2] = folding stability dG unfold from chymotrypsin proteolysis; higher = more stable
Summary of the method: as §1

[3] = folding stability dG unfold from trypsin proteolysis; higher = more stable
Summary of the method: as §1

In the case of “SAGGSAGGSAYTINIWVPPGMPKEEAADYIADWLHERHGIPDIKVSVEQDPDGMTKVTITVKSAGGSAGGSA [r18_1_TrROS]”, the “folding stability dG unfold” value [1] is reported as 2.52 ± 0.085 kcal/mol, the “folding stability dG unfold” value [2] is reported as 2.77 ± 0.033 kcal/mol and the “folding stability dG unfold” value [3] is reported as 2.32 ± 0.14 kcal/mol.
With “SAGGSAGGSAGGSEELLKKNPNYIIVKKVEKVLEAKTPSGKKYTIKTTIYIITKPNELPSAGGSAGGSAGGS [r10_0_JUSTAS]” the “folding stability dG unfold” value [1] was 1.84 ± 0.21 kcal/mol, the “folding stability dG unfold” value [2] was 2.13 ± 0.14 kcal/mol and the “folding stability dG unfold” value [3] was 1.52 ± 0.099 kcal/mol.
With “SAGGSAGGSAWITINDVRDYLKKEGIDPKNMSAEEIASEFKDKWPNVNIEAQPNGSAWIKPSAGGSAGGSAG [r3_375_TrROS]” the “folding stability dG unfold” value [1] was 0.814 ± 0.14 kcal/mol, the “folding stability dG unfold” value [2] was 0.535 ± 0.36 kcal/mol and the “folding stability dG unfold” value [3] was 0.785 ± 0.054 kcal/mol.
In the case of “SAGGSMELYTKSPDGKLFKVKIVNPGNAKDKVLFEAEVFDPKNNKPIGRFTGVVDPKTGKIISIKPSAGGSA [r2_324_TrMRF]”, the “folding stability dG unfold” value [1] is reported as 1.64 ± 0.13 kcal/mol, the “folding stability dG unfold” value [2] is reported as 1.68 ± 0.083 kcal/mol and the “folding stability dG unfold” value [3] is reported as 1.6 ± 0.035 kcal/mol.
In the case of “GVVRPLGDPNGQLSIVATDPEGNLLVKALVPNDEAQVEAAKKELLAAMPGLDEKEVVFSIYDPLTGKTKILS [r1_55_JUSTAS]”, the “folding stability dG unfold” value [1] is reported as 1.54 ± 0.12 kcal/mol, the “folding stability dG unfold” value [2] is reported as 1.61 ± 0.025 kcal/mol and the “folding stability dG unfold” value [3] is reported as 1.07 ± 0.1 kcal/mol.
With “SAGGSAGGSSSVVSTLEETPDSVVEKVETPDPIIVERVPLPDGTVEVRVFKPDGTPISISTLGSAGGSAGGS [r12_1061_JUSTAS]” the “folding stability dG unfold” value [1] was 0.507 ± 0.12 kcal/mol, the “folding stability dG unfold” value [2] was 0.0395 ± 0.18 kcal/mol and the “folding stability dG unfold” value [3] was 0.99 ± 0.036 kcal/mol.
With “SAGGSAGGSATPPDSSVSVKVEITVGGEKKLVTATLTTLPNGTTSLTLNFDIPPDKYELSLVSAGGSAGGSA [r18_428_JUSTAS]” the “folding stability dG unfold” value [1] was 2.51 ± 0.15 kcal/mol, the “folding stability dG unfold” value [2] was 2.74 ± 0.09 kcal/mol and the “folding stability dG unfold” value [3] was 2.52 ± 0.11 kcal/mol.
For “SAGGGSSMPVPVRVAEFNVPDSRPEELIERAKELLEADEIDVLVVPSPAAQEALKAAFPDFPVPVLVRSAGG [r13_353_JUSTAS]”, the “folding stability dG unfold” value [1] was -0.459 ± 0.11 kcal/mol, the “folding stability dG unfold” value [2] was -0.339 ± 0.17 kcal/mol and the “folding stability dG unfold” value [3] was -0.646 ± 0.085 kcal/mol.
For “SAGPPDWKPIAEFEYNIPMPPGETASEIENEILERIRPQGIKYVTIPVQYDPENGWIQVDVEIWVPPGASAG [r5_924_TrROS]”, the “folding stability dG unfold” value [1] was 0.891 ± 0.11 kcal/mol, the “folding stability dG unfold” value [2] was 0.849 ± 0.16 kcal/mol and the “folding stability dG unfold” value [3] was 0.898 ± 0.03 kcal/mol.
In the case of “SAGGMPVLEREFTIPLPDGTPLRVTVRYFPGTGRALVTLRPVGTGEPLATVPLSELPPELRAALAEESAGGS [r8_32_TrMRF]”, the “folding stability dG unfold” value [1] is reported as 2.9 ± 0.052 kcal/mol, the “folding stability dG unfold” value [2] is reported as 3.102 ± 0.026 kcal/mol and the “folding stability dG unfold” value [3] is reported as 2.42 ± 0.063 kcal/mol.
With “SAGGPPYYMIKIRYPDNGKEYEIPPGIKVHRDPNNEVYIMFRSPAAADDLVDEIAPTNGLRVEIEPFSAGGS [r8_131_TrROS]” the “folding stability dG unfold” value [1] was 0.915 ± 0.3 kcal/mol, the “folding stability dG unfold” value [2] was 1.07 ± 0.24 kcal/mol and the “folding stability dG unfold” value [3] was 0.945 ± 0.23 kcal/mol.
With “SASITLTAPGGKPVTLPVPPSLSVLSVELDPATGRWTIELQDPATGERFTVTVYAPPSGPAGVEVTPNVSAG [r14_311_JUSTAS]” the “folding stability dG unfold” value [1] was 3.486 ± 0.032 kcal/mol, the “folding stability dG unfold” value [2] was 3.409 ± 0.02 kcal/mol and the “folding stability dG unfold” value [3] was 3.61 ± 0.04 kcal/mol.
In the case of “SAGGMSTTKTVTSGGSTVTITTEPLPDGTTLSTVTVKSGGSPVTTITIPTSQLGEVAAAGGFAPADLLSAGG [r13_108_JUSTAS]”, the “folding stability dG unfold” value [1] is reported as 0.15 ± 0.065 kcal/mol, the “folding stability dG unfold” value [2] is reported as 0.172 ± 0.055 kcal/mol and the “folding stability dG unfold” value [3] is reported as 0.0387 ± 0.054 kcal/mol.
With “SAGGSAGGSADEEKLKELAEKLREAGYEVEVERYPDKVVIRVRNKKTGKTLELVFDSVEEALSAGGSAGGSA [r18_278_TrROS_Hall]” the “folding stability dG unfold” value [1] was 3.92 ± 0.15 kcal/mol, the “folding stability dG unfold” value [2] was 2.95 ± 0.096 kcal/mol and the “folding stability dG unfold” value [3] was 4.24 ± 0.12 kcal/mol.
In the case of “SAGGSAGGSATIYIIMPPDDPIPPNMPIRLPDGKPVRIDVEPVPLEEDGGPIFRIEVEPGATSAGGSAGGSA [r18_476_TrROS]”, the “folding stability dG unfold” value [1] is reported as -0.03 ± 0.16 kcal/mol, the “folding stability dG unfold” value [2] is reported as 0.0617 ± 0.21 kcal/mol and the “folding stability dG unfold” value [3] is reported as -0.181 ± 0.12 kcal/mol.
For “SAGGSAGGSEITIFIKGLPDPEAIADQIADAFGYPVKDVDVQRMPNNPWMMITVTYNGKEITISAGGSAGGS [r12_935_TrROS]”, the “folding stability dG unfold” value [1] was 1.86 ± 0.083 kcal/mol, the “folding stability dG unfold” value [2] was 1.97 ± 0.03 kcal/mol and the “folding stability dG unfold” value [3] was 1.58 ± 0.022 kcal/mol.
For “SPFRLKIEIDEVGPAGQEIRVKLEIWSDNKPIEMEHTIKVPNGRLYRIRMNIYMPPDGNFQLNLDVYPLDSA [r9_255_TrROS]”, the “folding stability dG unfold” value [1] was > 6 kcal/mol, the “folding stability dG unfold” value [2] was 6.34 ± 0.37 kcal/mol and the “folding stability dG unfold” value [3] was 4.29 ± 0.23 kcal/mol.
For “SAGGSAGGSAVVTLSPDGRRITITSRTVTYFKVTNTDDIAIETSVETVVTPLPSLGSPEVLASAGGSAGGSA [r18_6_JUSTAS]”, the “folding stability dG unfold” value [1] was 2.56 ± 0.28 kcal/mol, the “folding stability dG unfold” value [2] was 2.1 ± 0.098 kcal/mol and the “folding stability dG unfold” value [3] was 3.04 ± 0.13 kcal/mol.
In the case of “SAGGSAGGAIGTIDYNGKPLRLSVYLPDNPRVFEYPVDGDPLVFAAELNRETGFDVTDVVVVGGSAGGSAGG [r6_762_TrMRF]”, the “folding stability dG unfold” value [1] is reported as 0.132 ± 0.14 kcal/mol, the “folding stability dG unfold” value [2] is reported as 0.033 ± 0.18 kcal/mol and the “folding stability dG unfold” value [3] is reported as 0.291 ± 0.098 kcal/mol.
With “SAGGSAMTLEFKILFPNKTKEEAIKAIEEIPEEIKKNIKKIEILKIDPVGDEVIATLKIEVDPEFLSAGGSA [r15_244_TrMRF]” the “folding stability dG unfold” value [1] was 1.37 ± 0.29 kcal/mol, the “folding stability dG unfold” value [2] was 1.86 ± 0.24 kcal/mol and the “folding stability dG unfold” value [3] was 0.723 ± 0.18 kcal/mol.
With “SAGGSAGGSGDDIPTLTLVIKVDPNAITPEDIEEIKQAFLDLGYKEVTVTRNPETGYLVVELGSAGGSAGGS [r12_1025_TrMRF]” the “folding stability dG unfold” value [1] was 3.01 ± 0.21 kcal/mol, the “folding stability dG unfold” value [2] was 2.93 ± 0.11 kcal/mol and the “folding stability dG unfold” value [3] was 3.03 ± 0.25 kcal/mol.
In the case of “SAGGSAMSEEALAEAERLVAERRAALEAAGVPVTVERVEVTVTVDTEVPTTNITVDLDVRLPDAPESAGGSA [r2_94_JUSTAS]”, the “folding stability dG unfold” value [1] is reported as 0.999 ± 0.027 kcal/mol, the “folding stability dG unfold” value [2] is reported as 1.38 ± 0.024 kcal/mol and the “folding stability dG unfold” value [3] is reported as -0.0861 ± 0.034 kcal/mol.
In the case of “SAGGKKIEIYKLKDALIIKIPEKGLLILLGNDTAIIFKVKSIKNNGKPKIISSKIISLEEILDLIKSSAGGS [r8_174_TrMRF]”, the “folding stability dG unfold” value [1] is reported as 3.31 ± 0.13 kcal/mol, the “folding stability dG unfold” value [2] is reported as 3.75 ± 0.047 kcal/mol and the “folding stability dG unfold” value [3] is reported as 2.79 ± 0.12 kcal/mol.
In the case of “SAGGSAGGSAMKVVSVEAAPGQTVTVRVLVEDPETQELYELEVTVTVTAPEPVTVELPPEASAGGSAGGSAG [r3_271_TrROS_Hall]”, the “folding stability dG unfold” value [1] is reported as 2.03 ± 0.23 kcal/mol, the “folding stability dG unfold” value [2] is reported as 2.47 ± 0.082 kcal/mol and the “folding stability dG unfold” value [3] is reported as 1.89 ± 0.15 kcal/mol.
In the case of “SAGGSAGGSAGMVVKVKEHPITITKLPDGSWRLTHPASGKVILLPGVDEATAKAIAEELTSAGGSAGGSAGG [r11_1085_JUSTAS]”, the “folding stability dG unfold” value [1] is reported as 1.58 ± 0.054 kcal/mol, the “folding stability dG unfold” value [2] is reported as 1.76 ± 0.027 kcal/mol and the “folding stability dG unfold” value [3] is reported as 1.26 ± 0.015 kcal/mol.
For “SAGGSAGGSAGGEDPNLKSKTITKKVEKGKLDSSKNITDSSGNTSIITVENNTITITIVSSAGGSAGGSAGG [r7_97_JUSTAS]”, the “folding stability dG unfold” value [1] was 1.03 ± 0.2 kcal/mol, the “folding stability dG unfold” value [2] was 1.66 ± 0.049 kcal/mol and the “folding stability dG unfold” value [3] was -0.215 ± 0.31 kcal/mol.
In the case of “SAGGGWPWVVKFEPPDGKEMEFVIPFNPKKNWYWIKMPGNGKTVPVPLDDLEEQPGFQIDEIEPLDDLSAGG [r13_994_TrROS]”, the “folding stability dG unfold” value [1] is reported as 1 ± 0.27 kcal/mol, the “folding stability dG unfold” value [2] is reported as 1.31 ± 0.48 kcal/mol and the “folding stability dG unfold” value [3] is reported as -0.0768 ± 0.33 kcal/mol.
With “SAGGGAEELAKALAEELEKEGLIKEVEVEVRVRPDGSIEVRIKVKVEPPPPPPPVTVVRDENGEERLLSAGG [r13_957_TrROS_Hall]” the “folding stability dG unfold” value [1] was 1.11 ± 0.31 kcal/mol, the “folding stability dG unfold” value [2] was 0.601 ± 0.12 kcal/mol and the “folding stability dG unfold” value [3] was 0.972 ± 0.097 kcal/mol.
In the case of “SAGKKKTLTLTLGNVTITITYDEDTGTLRIKVTATVTTVTLDKDTKELTTEKKTVTTEIEIPLAPGATLSAG [r5_195_TrROS_Hall]”, the “folding stability dG unfold” value [1] is reported as 2.67 ± 0.2 kcal/mol, the “folding stability dG unfold” value [2] is reported as 2.79 ± 0.086 kcal/mol and the “folding stability dG unfold” value [3] is reported as 2.76 ± 0.18 kcal/mol.
For “SAGGSAGGSAGDGWRKASFIIDPNGEILEPIPLPPGVKVEVEPFPGDGMYFVEITIPPDDSAGGSAGGSAGG [r11_32_TrROS]”, the “folding stability dG unfold” value [1] was 0.378 ± 0.17 kcal/mol, the “folding stability dG unfold” value [2] was 0.684 ± 0.099 kcal/mol and the “folding stability dG unfold” value [3] was -0.497 ± 0.22 kcal/mol.
In the case of “SAGGSAGGSAGGSKYVVIRVKKSVDELKDALKKAGFKVKIVSVYYDKENKEIYVVVKIESAGGSAGGSAGGS [r4_315_TrROS_Hall]”, the “folding stability dG unfold” value [1] is reported as 4.16 ± 0.17 kcal/mol, the “folding stability dG unfold” value [2] is reported as 4.45 ± 0.14 kcal/mol and the “folding stability dG unfold” value [3] is reported as 3.7 ± 0.15 kcal/mol.
